Patent publication US20250332297A1, “DLL3-SPECIFIC BINDING CONSTRUCTS AND THEIR USE IN RADIOTHERAPY” (MOLECULAR PARTNERS AG, priority 2024, published 2025)
Like-named read-outs stand apart in the source and are kept apart here.

What was measured:
[1] = molecular target: T1, human DLL3 expressed on HEK293T-huDLL3 cells (Homo sapiens, UniProt Q9NYJ7); assay: Cell binding titration on HEK293T-hDLL3 cells; format: cell-based; conditions: absence of human serum albumin, read-out: Cell binding EC50, w/o HSA
T1 construct: expressed in transfected cells; host or cells: HEK293T-hDLL3
T1 sequence (Q9NYJ7 27-618): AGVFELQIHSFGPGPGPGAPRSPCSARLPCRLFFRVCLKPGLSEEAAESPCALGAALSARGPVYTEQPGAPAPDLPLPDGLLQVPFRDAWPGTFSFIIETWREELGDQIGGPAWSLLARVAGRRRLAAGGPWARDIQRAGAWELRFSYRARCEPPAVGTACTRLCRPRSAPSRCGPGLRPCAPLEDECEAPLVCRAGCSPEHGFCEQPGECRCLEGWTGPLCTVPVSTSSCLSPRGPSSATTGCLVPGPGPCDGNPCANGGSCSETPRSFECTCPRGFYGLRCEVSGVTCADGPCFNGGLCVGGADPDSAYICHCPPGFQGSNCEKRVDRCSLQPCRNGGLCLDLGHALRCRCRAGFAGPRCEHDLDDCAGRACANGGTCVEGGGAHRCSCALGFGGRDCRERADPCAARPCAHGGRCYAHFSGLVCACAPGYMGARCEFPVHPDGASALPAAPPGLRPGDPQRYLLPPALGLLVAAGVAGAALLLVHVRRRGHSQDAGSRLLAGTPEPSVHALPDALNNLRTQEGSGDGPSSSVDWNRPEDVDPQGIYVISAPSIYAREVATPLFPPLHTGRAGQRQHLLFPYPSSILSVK
Protocol: Cell binding titration assays were performed for selected His-tagged single domain (1 D) and two domain (2D) designed ankyrin repeat proteins to determine binding to human DLL3 expressed on HEK293T-huDLL3 cells in absence and presence of human serum albumin. Controls included Rova antibody as a positive control and a non-binding DARPin comprising SEQ ID NO: 21 as a negative control. HEK293T-hDLL3 cells are HEK293T cells that were stably transfected to express human DLL3 on their surface.
In brief, 1×10^5 cells/well were resuspended in 100 μl DARPin dilution (500 nM, 1:5 serial diluted) and incubated for 1 h at 4° C. Cells were washed twice with PBS and resuspended in 100 μl anti-DARPin antibody (rabbit anti-DARPin 1.4.8) and LIVE/DEAD fixable cell stain (1:1000, Thermo Fisher #L34957). This step was performed in absence and presence of […] Human Serum Albumin (CSL Behring #150570). After incubation and washing, cells were incubated with detection antibody for 30 minutes (Goat anti-Human IgG (H+L), AF647, Thermo Fisher #21445). Cells were fixed (Paraformaldehyde Solution, LucernaChem) and acquired at Attune N×T (Thermo Life Technologies). Raw fcs files were exported and analyzed using FlowJo software. MFI values of live AF647-positive cells were exported from FlowJo and plotted using GraphPad Prism software. None of the tested ankyrin repeat proteins show binding to the HEK293T wildtype cells.

[2] = Pharmacokinetic analysis in WT BALBc mice (serum, ELISA); format: in vivo, mouse
Source text: The pharmacokinetic (PK) properties of lead-labelled DARPin (MAM160, MAM279, MAM282, MAM283) conjugates were investigated in mice, including to determine the terminal half-life (or serum half-life) of these conjugates.
In brief, DARPins MAM279, MAM283, MAM160 and MAM282 were conjugated to the chelator DOTAM, via a C-terminal Cysteine containing tag and a connector, as described in Example 3. The conjugates were then labelled with natural lead (Pb). The protein components of the conjugates corresponded to SEQ ID NOs: 15 to 18, respectively. These lead-labelled DARPin conjugates were injected i.v. at 1 mg/kg into WT BALBc mice. Serum was collected 2 min, 10 min, 30 min, 1 h, 4 h, 24 h, 48 h, and 72 h post-injection. DARPins were detected and measured by ELISA. The data were expressed as the DARPin concentration in serum (nmol/L).
In brief, lead-labelled MAM279 conjugate, as described in Example 13, was injected i. at 0.1 mg/kg or at 1 mg/kg into the tail vein of WT BALBc mice. Serum was collected 2 min, 10 min, 30 min, 1 h, 4 h, 24 h, 48 h, and 72 h post-injection for MAM279 conjugate injected at 1 mg/kg, and 2 min, 30 min, 4 h, 24 h, 30 h, 48 h, 72 h, 96 h, and 168 h post-injection for MAM279 conjugate injected at 0.1 mg/kg. DARPins were detected and measured by ELISA. The data were expressed as the DARPin concentration in serum (nmol/L).
In brief, natural lead-labelled MAM279 conjugate, as described in Example 13, was injected i.v. at different doses (0.001 mg/kg, 0.01 mg/kg, 0.1 mg/kg, or 1 mg/kg) into the tail vein of WT BALBc mice. Similarly, unconjugated Rova was injected iv. at 1 mg/kg into the tail vein of WT BALBc mice. Serum was collected 2 min, 10 min, 30 min, 1 h, 4 h, 24 h, 48 h, and 72 h post-injection for MAM279 conjugate injected at 1 mg/kg, and 2 min, 30 min, 4 h, 24 h, 30 h, 48 h, 72 h, 96 h, and 168 h post-injection for MAM279 conjugate injected at 0.1 mg/kg, 0.01 mg/kg and 0.001 mg/kg. Serum was collected 2 min, 30 min, 4 h, 24 h, 30 h, 48 h, 72 h, 96 h, and 168 h post-injection for Rova antibody injected at 1 mg/kg. DARPins and Rova were detected and measured by ELISA. Rova PK characteristics were calculated with time points between 4 h and 168 h and MAM279 conjugate PK characteristics were calculated with time points between 4 h and 72 h. The data were expressed as the DARPin or Rova concentration in serum (nmol/L). Results are shown in FIGS. 19A and 19B and Table 22.

[3] = molecular target: T1, human DLL3 expressed on HEK293T-huDLL3 cells; assay: Cell binding titration on HEK293T-hDLL3 cells; format: cell-based; conditions: presence of human serum albumin (10 μM in FIG. 9 legend, 10 pM in the source), read-out: Cell binding EC50, with HSA
[4] = 1 mg/kg i.v., MAM279 natural lead-labelled conjugate (time points 4-72 h), Rova unconjugated (4-168 h), Table 22
[5] = 1 mg/kg i.v., MAM279 natural lead-labelled conjugate, Rova unconjugated, Table 22
[6] = natural lead-labelled DOTAM conjugate 0.1 mg/kg i.v., Table 17
[7] = natural lead-labelled DOTAM conjugate 1 mg/kg i.v., Tables 16, 17
[8] = natural lead-labelled conjugate 0.001 mg/kg i.v., Table 22
[9] = natural lead-labelled conjugate 0.01 mg/kg i.v., Table 22
[10] = natural lead-labelled conjugate 0.1 mg/kg i.v., Table 22

B1: MAM279: Two domain (2D) ankyrin repeat protein: serum albumin-specific domain (SEQ ID NO: 7), PT linker, DLL3-specific domain of MAM093 (protein)
chain: DLGKKLLEAARAGQDDEVRELLKAGADVNAKDYFSHTPLHLAARNGHLKIVEVLLKAGADVNAKDFAGKTPLHLAADAGHLEIVEVLLKAGADVNAQDIFGKTPADIAADAGHEDIAEVLQKAAGSPTPTPTTPTPTPTTPTPTPTGSDLGKKLLAAAAQGQDDEVRELLKAGANVNAKDLFGYTPLHLAAWRGHLEIVEVLLKAGADVNAKDAAGETPLHLAAWFGHLEIVEVLLKAGADVNAQDLQGKTPADLAAKEGHEDIAEVLQKAA
modifications: Ankyrin repeat protein (MAM279)
[1]
  EC50: 14.9 nM
[2]; [4]
  AUCINF_pre: 29.3837 µM·h
  AUClast: 23892.0 h*hr*nmol/L
  HL_Lambda_z: 30.5 h
[2]; [5]
  AUC_%Back_Ext_pre: 0%
  AUC_%Extrap_Pred: 19%
  Cl_pred: 1.2 mL/h/kg
  Cmax: 1330 nM
  Tmax: 1.98 min
  Vss_pred: 0.048 L/kg
[2]; [6]
  AUCINF_pred: 2.4051 µM·h
  AUC_% Back_Ext_pred: 0%
  AUC_% Extrap_pred: 3%
  AUClast: 2343.4 nmol·h/L
  CI_pred: 1.4 mL/h/kg
  Cmax: 88.3 nM
  HL_Lambda_z: 32.8 h
  Tmax: 1.98 min
  Vss_pred: 0.066 L/kg
[2]; [7]
  AUCINF_pred: 29.3837 µM·h
  AUC_% Back_Ext_pred: 0%
  AUC_% Extrap_pred: 19%
  AUClast: 23892.0 nmol·h/L
  CI_pred: 1.2 mL/h/kg
  Cmax: 1330 nM
  HL_Lambda_z: 30.5 h
  Tmax: 1.98 min
  Vss_pred: 0.048 L/kg
[2]; [8]
  AUCINF_pre: 0.007 µM·h
  AUC_%Back_Ext_pre: 0%
  AUC_%Extrap_Pred: 28%
  AUClast: 5.0 h*hr*nmol/L
  Cl_pred: 4.9 mL/h/kg
  Cmax: 0.29 nM
  HL_Lambda_z: 39.9 h
  Tmax: 1.98 min
  Vss_pred: 0.267 L/kg
[2]; [9]
  AUCINF_pre: 0.101 µM·h
  AUC_%Back_Ext_pre: 0%
  AUC_%Extrap_Pred: 3%
  AUClast: 98.3 h*hr*nmol/L
  Cl_pred: 3.4 mL/h/kg
  Cmax: 3.7 nM
  HL_Lambda_z: 33.1 h
  Tmax: 1.98 min
  Vss_pred: 0.157 L/kg
[2]; [10]
  AUCINF_pre: 2.4051 µM·h
  AUC_%Back_Ext_pre: 0%
  AUC_%Extrap_Pred: 3%
  AUClast: 2343.4 h*hr*nmol/L
  Cl_pred: 1.4 mL/h/kg
  Cmax: 88.3 nM
  HL_Lambda_z: 32.8 h
  Tmax: 1.98 min
  Vss_pred: 0.066 L/kg
[3]
  EC50: 16.3 nM

B2: MAM283: Two domain (2D) ankyrin repeat protein: serum albumin-specific domain (SEQ ID NO: 7), PT linker, DLL3-specific domain (SEQ ID NO: 3) (protein)
chain: DLGKKLLEAARAGQDDEVRELLKAGADVNAKDYFSHTPLHLAARNGHLKIVEVLLKAGADVNAKDFAGKTPLHLAADAGHLEIVEVLLKAGADVNAQDIFGKTPADIAADAGHEDIAEVLQKAAGSPTPTPTTPTPTPTTPTPTPTGSDLGKKLLAAAADGQDDEVRELLQAGADVNAKDLFGYTPLHLAAWRGHLEIVEVLLEAGADVNAKDAAGETPLHLAAWFGHLEIVEVLLEAGADVNAQDVQGKTPADLAAKEGHEDIAEVLQQAA
modifications: Ankyrin repeat protein (MAM283)
[1]
  EC50: 22.1 nM
[2]; [7]
  AUCINF_pred: 14.4943 µM·h
  AUC_% Back_Ext_pred: 0%
  AUC_% Extrap_pred: 2%
  AUClast: 14243.6 nmol·h/L
  CI_pred: 2.3 mL/h/kg
  Cmax: 1440 nM
  HL_Lambda_z: 12.7 h
  Tmax: 1.98 min
  Vss_pred: 0.035 L/kg
[3]
  EC50: 18.4 nM

B3: MAM282: Two domain (2D) ankyrin repeat protein: serum albumin-specific domain (SEQ ID NO: 7), PT linker, DLL3-specific domain (SEQ ID NO: 2) (protein)
chain: DLGKKLLEAARAGQDDEVRELLKAGADVNAKDYFSHTPLHLAARNGHLKIVEVLLKAGADVNAKDFAGKTPLHLAADAGHLEIVEVLLKAGADVNAQDIFGKTPADIAADAGHEDIAEVLQKAAGSPTPTPTTPTPTPTTPTPTPTGSDLGKKLLAAAREGQDDEVRELLKAGADVNAKDIWGQTPLHIAAWFGHLEIVEVLLKAGADVNAKDQTGHTPLHLAAKFGHLEIVEVLLKAGADVNAQDLLGRTPADLAAEEGHEDIAEVLQKAA
modifications: Ankyrin repeat protein (MAM282)
[1]
  EC50: 21.2 nM
[2]; [7]
  AUCINF_pred: 8.435 µM·h
  AUC_% Back_Ext_pred: 0%
  AUC_% Extrap_pred: 17%
  AUClast: 7038.9 nmol·h/L
  CI_pred: 4 mL/h/kg
  Cmax: 461 nM
  HL_Lambda_z: 28.5 h
  Tmax: 1.98 min
  Vss_pred: 0.153 L/kg
[3]
  EC50: 19.6 nM
